Data: PMC5700061

How the values were obtained:
[1] = target: Furin-resistant mouse proBrain-Derived Neurotrophic Factor (proBDNF) (mouse) (UniProt P21237); test: SPR; equilibrium binding, IBIS MX96; NGF, proNGF and proBDNF amine-coupled, s-sortilin as analyte; 25 mM MES pH 5.0, 150 mM NaCl, 0.005% Tween 20, 25 °C; 1:1 Langmuir model
[2] = target: Furin-resistant mouse proBrain-Derived Neurotrophic Factor (proBDNF) (mouse) (UniProt P21237); test: SPR; equilibrium binding, IBIS MX96; NGF, proNGF and proBDNF amine-coupled, s-sortilin as analyte; 25 mM HEPES pH 7.4, 150 mM NaCl, 0.005% Tween 20, 25 °C; 1:1 Langmuir model
[3] = target: Furin-resistant mouse proBrain-Derived Neurotrophic Factor (proBDNF) (mouse) (UniProt P21237); test: SPR; MX96 (IBIS); NGF, proNGF and proBDNF amine-coupled to a P-COOH SensEye sensor, s-sortilin flowed over as analyte; 25 mM MES pH 5.0, 150 mM NaCl, 0.005% Tween 20, 25 °C; equilibrium binding, 1:1 Langmuir model
[4] = target: Mouse Nerve Growth Factor (NGF) (mouse) (UniProt P01139); test: as above
Chain of Mouse Nerve Growth Factor (NGF) (mouse) (P01139 122-241): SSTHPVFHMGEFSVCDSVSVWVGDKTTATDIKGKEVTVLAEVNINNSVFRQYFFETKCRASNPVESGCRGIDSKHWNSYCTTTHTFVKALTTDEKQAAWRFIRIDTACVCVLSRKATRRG

[5] = target: Mouse sortilin luminal segment (s-sortilin), wild type, native glycans (mouse); test: SEC-MALS; Superdex 200 10/300 GL, 10 µl of 10 mg mL^-1 injected, 0.5 ml min^-1; 25 mM MES pH 5.0, 150 mM NaCl

s-sortilin A464E (dimerization interface mutant of the mouse sortilin luminal segment) (domain or fragment)
fold reduction of binding at pH 5.0 against pH 7.4 [1]: 4 fold | Kd [2]: 400 nM

Mouse s-sortilin A464E, native glycans (domain or fragment)
Kd [3]: 2280 nM | Kd [4]: 730 nM

Mouse sortilin luminal segment (s-sortilin), wild type, native glycans (domain or fragment)
stoichiometry N [5]: 2
